The supplement of paper PMC9112550, “Optimization of the antimicrobial peptide Bac7 by deep mutational scanning” (BMC Biology, 2022)

Tested on: Escherichia coli TOP10
Assay: shrunken log2 fold change of peptide-encoding DNA abundance (4.5 h post-induction vs induction); higher = less antimicrobial activity (less host growth inhibition)
Conditions: time post-induction: 4.5 h; library: site-saturation at positions 5, 18, 19, 20
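Note: peptides expressed intracellularly from a pBAD plasmid library in pooled LB shake-flask culture, induced with 0.3% L-arabinose, DNA abundance read by NGS, three biological replicates, DESeq2 with apeglm shrinkage.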

| Sequence | shrunken log2 fold change |
| --- | --- |
| RRIRDRPPRLPRPRPRPMNAPRP | -0.0396 |
| RRIRERPPRLPRPRPRPSWHPRP | -0.215 |
| RRIRERPPRLPRPRPRPTHEPRP | 0.317 |
| RRIRCRPPRLPRPRPRPTWPPRP | 0.371 |
| RRIRQRPPRLPRPRPRPKFKPRP | 0.0538 |
| RRIRDRPPRLPRPRPRPPQRPRP | 0.719 |
| RRIRGRPPRLPRPRPRPCCNPRP | -0.265 |
| RRIRYRPPRLPRPRPRPCTCPRP | 0.0744 |
| RRIRIRPPRLPRPRPRPNATPRP | -0.12 |
| RRIRMRPPRLPRPRPRPVRVPRP | 1.74 |
| RRIRQRPPRLPRPRPRPLDMPRP | 0.0532 |
| RRIRMRPPRLPRPRPRPNRSPRP | -0.0367 |
| RRIRNRPPRLPRPRPRPWMGPRP | -0.558 |
| RRIRLRPPRLPRPRPRPATSPRP | -0.149 |
| RRIRARPPRLPRPRPRPLCMPRP | -0.125 |
| RRIRERPPRLPRPRPRPHPEPRP | -0.073 |
| RRIRGRPPRLPRPRPRPMTRPRP | 0.519 |
| RRIRDRPPRLPRPRPRPFMIPRP | 0.0898 |
| RRIRQRPPRLPRPRPRPWQGPRP | -0.137 |
| RRIRPRPPRLPRPRPRPRVIPRP | 0.033 |
| RRIRLRPPRLPRPRPRPPLEPRP | 0.752 |
| RRIRERPPRLPRPRPRPWIKPRP | -0.924 |
| RRIRERPPRLPRPRPRPITWPRP | 0.0224 |
| RRIRQRPPRLPRPRPRPFRWPRP | -0.0233 |
| RRIRMRPPRLPRPRPRPQPGPRP | 0.778 |

| Sequence | shrunken log2 fold change |
| --- | --- |
| RRIRWRPPRLPRPRPRPTLYPRP | -0.0322 |
| RRIRIRPPRLPRPRPRPGFIPRP | -0.391 |
| RRIRHRPPRLPRPRPRPAYGPRP | -0.075 |
| RRIRWRPPRLPRPRPRPYTNPRP | -0.993 |
| RRIRHRPPRLPRPRPRPNTTPRP | -0.019 |
| RRIRYRPPRLPRPRPRPLSYPRP | -0.273 |
| RRIRVRPPRLPRPRPRPFLAPRP | -0.219 |
| RRIRIRPPRLPRPRPRPKICPRP | -0.883 |
| RRIRDRPPRLPRPRPRPNKIPRP | -0.457 |
| RRIRYRPPRLPRPRPRPKDPPRP | -0.236 |
| RRIRDRPPRLPRPRPRPSICPRP | -0.0317 |
| RRIRSRPPRLPRPRPRPHLSPRP | -0.0791 |
| RRIRMRPPRLPRPRPRPALLPRP | 0.727 |
| RRIRFRPPRLPRPRPRPVCAPRP | 0.198 |
| RRIRKRPPRLPRPRPRPMEQPRP | 0.033 |
| RRIRARPPRLPRPRPRPYIEPRP | -0.44 |
| RRIRCRPPRLPRPRPRPHFGPRP | -0.219 |
| RRIRMRPPRLPRPRPRPKYWPRP | 0.164 |
| RRIRVRPPRLPRPRPRPCCCPRP | 0.0615 |
| RRIRMRPPRLPRPRPRPNIRPRP | -0.169 |
| RRIRERPPRLPRPRPRPAEAPRP | -0.0209 |
| RRIRPRPPRLPRPRPRPECAPRP | 0.698 |
| RRIRQRPPRLPRPRPRPKHRPRP | -0.0509 |
| RRIRRRPPRLPRPRPRPWSAPRP | 0.131 |
| RRIRVRPPRLPRPRPRPVNMPRP | -0.418 |

| Sequence | shrunken log2 fold change |
| --- | --- |
| RRIRARPPRLPRPRPRPGWRPRP | 0.473 |
| RRIRLRPPRLPRPRPRPHLFPRP | -0.0266 |
| RRIRKRPPRLPRPRPRPTKFPRP | 0.663 |
| RRIRLRPPRLPRPRPRPDWLPRP | 0.318 |
| RRIRPRPPRLPRPRPRPQWDPRP | -0.355 |
| RRIRRRPPRLPRPRPRPPSDPRP | 0.79 |
| RRIRNRPPRLPRPRPRPDKIPRP | 0.159 |
| RRIRNRPPRLPRPRPRPKTHPRP | -0.298 |
| RRIRTRPPRLPRPRPRPFGSPRP | 0.0169 |
| RRIRMRPPRLPRPRPRPPMQPRP | 0.504 |
| RRIRIRPPRLPRPRPRPPWYPRP | -0.394 |
| RRIRQRPPRLPRPRPRPLPRPRP | 0.724 |
| RRIRWRPPRLPRPRPRPRLVPRP | 0.476 |
| RRIRPRPPRLPRPRPRPGFLPRP | 0.167 |
| RRIRWRPPRLPRPRPRPYQCPRP | -0.325 |
| RRIRERPPRLPRPRPRPWKPPRP | -0.00455 |
| RRIRYRPPRLPRPRPRPRAFPRP | -0.677 |
| RRIRNRPPRLPRPRPRPCHDPRP | -0.0458 |
| RRIRNRPPRLPRPRPRPVKTPRP | -0.0264 |
| RRIRRRPPRLPRPRPRPQATPRP | 0.233 |
| RRIRARPPRLPRPRPRPRSYPRP | 0.242 |
| RRIRFRPPRLPRPRPRPCIHPRP | -0.0499 |
| RRIRVRPPRLPRPRPRPSLYPRP | -0.62 |
| RRIRPRPPRLPRPRPRPKLMPRP | 0.121 |
| RRIRCRPPRLPRPRPRPHFEPRP | -0.152 |

| Sequence | shrunken log2 fold change |
| --- | --- |
| RRIRLRPPRLPRPRPRPWDTPRP | 0.0949 |
| RRIRSRPPRLPRPRPRPQCFPRP | -0.282 |
| RRIRLRPPRLPRPRPRPKNYPRP | -0.458 |
| RRIRFRPPRLPRPRPRPDECPRP | -0.399 |
| RRIRHRPPRLPRPRPRPGEAPRP | 0.051 |
| RRIRIRPPRLPRPRPRPPLKPRP | -0.105 |
| RRIRQRPPRLPRPRPRPMWEPRP | 0.00271 |
| RRIRRRPPRLPRPRPRPNNAPRP | -0.18 |
| RRIRIRPPRLPRPRPRPMVEPRP | 3.19 |
| RRIRKRPPRLPRPRPRPWNDPRP | 0.0299 |
| RRIRGRPPRLPRPRPRPMHDPRP | 0.361 |
| RRIRYRPPRLPRPRPRPLHSPRP | -0.803 |
| RRIRERPPRLPRPRPRPIHRPRP | 0.0155 |
| RRIRSRPPRLPRPRPRPKPEPRP | -0.01 |
| RRIRQRPPRLPRPRPRPGHYPRP | -0.00181 |
| RRIRIRPPRLPRPRPRPDECPRP | 0.0238 |
| RRIRKRPPRLPRPRPRPSWDPRP | -0.164 |
| RRIRRRPPRLPRPRPRPCHMPRP | -0.237 |
| RRIRSRPPRLPRPRPRPYPVPRP | -0.0856 |
| RRIRYRPPRLPRPRPRPHGFPRP | 0.0238 |
| RRIRKRPPRLPRPRPRPCVFPRP | 0.204 |
| RRIRIRPPRLPRPRPRPHFQPRP | -1.78 |
| RRIRTRPPRLPRPRPRPCPFPRP | -0.484 |
| RRIRSRPPRLPRPRPRPRHIPRP | -0.264 |
| RRIRGRPPRLPRPRPRPDMWPRP | 0.132 |

| Sequence | shrunken log2 fold change |
| --- | --- |
| RRIRRRPPRLPRPRPRPQRAPRP | 0.226 |
| RRIRKRPPRLPRPRPRPLPRPRP | 1.08 |
| RRIRERPPRLPRPRPRPESDPRP | -0.0699 |
| RRIRSRPPRLPRPRPRPRKTPRP | 0.0973 |
| RRIRERPPRLPRPRPRPRIPPRP | -0.269 |
| RRIRNRPPRLPRPRPRPGQMPRP | 0.00315 |
| RRIRTRPPRLPRPRPRPGPVPRP | 0.141 |
| RRIRSRPPRLPRPRPRPSNCPRP | -0.525 |
| RRIRERPPRLPRPRPRPKRPPRP | 0.194 |
| RRIRKRPPRLPRPRPRPHDIPRP | 0.168 |
| RRIRIRPPRLPRPRPRPMMWPRP | -0.00731 |
| RRIRKRPPRLPRPRPRPFEYPRP | -0.00133 |
| RRIRNRPPRLPRPRPRPSSYPRP | -0.388 |
| RRIRQRPPRLPRPRPRPKASPRP | -0.0573 |
| RRIRKRPPRLPRPRPRPNTVPRP | 0.126 |
| RRIRHRPPRLPRPRPRPMVCPRP | -0.0703 |
| RRIRERPPRLPRPRPRPWGGPRP | 0.267 |
| RRIRGRPPRLPRPRPRPYLAPRP | 0.398 |
| RRIRMRPPRLPRPRPRPMYAPRP | 0.0486 |
| RRIRCRPPRLPRPRPRPIEMPRP | -0.0735 |
| RRIRQRPPRLPRPRPRPYVTPRP | -0.253 |
| RRIRYRPPRLPRPRPRPARGPRP | 0.515 |
| RRIRARPPRLPRPRPRPAWHPRP | 0.159 |
| RRIRYRPPRLPRPRPRPELTPRP | 0.075 |
| RRIRNRPPRLPRPRPRPDIQPRP | -0.0597 |

| Sequence | shrunken log2 fold change |
| --- | --- |
| RRIRPRPPRLPRPRPRPHMCPRP | -0.082 |
| RRIRIRPPRLPRPRPRPIGWPRP | 0.0224 |
| RRIRCRPPRLPRPRPRPTSCPRP | -0.0641 |
| RRIRVRPPRLPRPRPRPYKCPRP | -0.0495 |
| RRIRRRPPRLPRPRPRPFTYPRP | -0.22 |
| RRIRRRPPRLPRPRPRPLKTPRP | 0.157 |
| RRIRPRPPRLPRPRPRPCTCPRP | -0.049 |
| RRIRPRPPRLPRPRPRPITQPRP | -0.194 |
| RRIRFRPPRLPRPRPRPRPIPRP | 0.341 |
| RRIRYRPPRLPRPRPRPWQSPRP | -0.121 |
| RRIRNRPPRLPRPRPRPNQDPRP | -0.251 |
| RRIRLRPPRLPRPRPRPSDHPRP | -0.293 |
| RRIRYRPPRLPRPRPRPPKAPRP | -0.0334 |
| RRIRQRPPRLPRPRPRPFSTPRP | 0.0344 |
| RRIRKRPPRLPRPRPRPAFLPRP | 0.245 |
| RRIRYRPPRLPRPRPRPSKAPRP | -0.223 |
| RRIRARPPRLPRPRPRPTAIPRP | 0.977 |
| RRIRFRPPRLPRPRPRPGSEPRP | -0.0634 |
| RRIRFRPPRLPRPRPRPWTKPRP | 0.0163 |
| RRIRSRPPRLPRPRPRPRNWPRP | 0.318 |
| RRIRARPPRLPRPRPRPMNKPRP | -0.00986 |
| RRIRARPPRLPRPRPRPIRGPRP | 0.0372 |
| RRIRRRPPRLPRPRPRPQMWPRP | -0.00576 |
| RRIRVRPPRLPRPRPRPDPWPRP | 0.131 |
| RRIRMRPPRLPRPRPRPNAAPRP | 2.83 |
